Assay results: the supplement of paper PMC9112550, “Optimization of the antimicrobial peptide Bac7 by deep mutational scanning” (BMC Biology, 2022)

System: Escherichia coli TOP10
Experiment: shrunken log2 fold change of peptide-encoding DNA abundance (4.5 h post-induction vs induction); higher = less antimicrobial activity (less host growth inhibition)
Details: time post-induction: 4.5 h; library: site-saturation at positions 5, 18, 19, 20
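Note: peptides expressed intracellularly from a pBAD plasmid library in pooled LB shake-flask culture, induced with 0.3% L-arabinose, DNA abundance read by NGS, three biological replicates, DESeq2 with apeglm shrinkage.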

Row | Sequence | shrunken log2 fold change
1 | RRIRCRPPRLPRPRPRPHEHPRP | 1.94
2 | RRIRCRPPRLPRPRPRPHGWPRP | 0.267
3 | RRIRCRPPRLPRPRPRPHGYPRP | -0.108
4 | RRIRCRPPRLPRPRPRPHKFPRP | -0.742
5 | RRIRCRPPRLPRPRPRPHKMPRP | -0.593
6 | RRIRCRPPRLPRPRPRPHMAPRP | -0.374
7 | RRIRCRPPRLPRPRPRPHMGPRP | -0.29
8 | RRIRCRPPRLPRPRPRPHNIPRP | -0.898
9 | RRIRCRPPRLPRPRPRPHNMPRP | -0.82
10 | RRIRCRPPRLPRPRPRPHPEPRP | -0.168
11 | RRIRCRPPRLPRPRPRPHSGPRP | 0.00506
12 | RRIRCRPPRLPRPRPRPHVFPRP | 0.161
13 | RRIRCRPPRLPRPRPRPHVMPRP | -0.743
14 | RRIRCRPPRLPRPRPRPHYGPRP | -0.189
15 | RRIRCRPPRLPRPRPRPIAVPRP | -0.0152
16 | RRIRCRPPRLPRPRPRPIAYPRP | -0.113
17 | RRIRCRPPRLPRPRPRPIDDPRP | -0.0196
18 | RRIRCRPPRLPRPRPRPIGCPRP | -0.00449
19 | RRIRCRPPRLPRPRPRPIGGPRP | -0.17
20 | RRIRCRPPRLPRPRPRPIHCPRP | -0.0192
21 | RRIRCRPPRLPRPRPRPIHMPRP | 0.109
22 | RRIRCRPPRLPRPRPRPIHVPRP | -0.377
23 | RRIRCRPPRLPRPRPRPIKEPRP | -0.0741
24 | RRIRCRPPRLPRPRPRPIMNPRP | -0.911
25 | RRIRCRPPRLPRPRPRPINRPRP | 0.0376

Row | Sequence | shrunken log2 fold change
26 | RRIRCRPPRLPRPRPRPIPDPRP | 0.106
27 | RRIRCRPPRLPRPRPRPIQAPRP | 0.0936
28 | RRIRCRPPRLPRPRPRPIQCPRP | -0.14
29 | RRIRCRPPRLPRPRPRPIQFPRP | -0.131
30 | RRIRCRPPRLPRPRPRPIRCPRP | -0.00208
31 | RRIRCRPPRLPRPRPRPITDPRP | -0.442
32 | RRIRCRPPRLPRPRPRPITKPRP | -0.297
33 | RRIRCRPPRLPRPRPRPITVPRP | -0.222
34 | RRIRCRPPRLPRPRPRPIVEPRP | -0.151
35 | RRIRCRPPRLPRPRPRPIWMPRP | -0.677
36 | RRIRCRPPRLPRPRPRPKAHPRP | 0.205
37 | RRIRCRPPRLPRPRPRPKAKPRP | 0.0298
38 | RRIRCRPPRLPRPRPRPKCGPRP | 0.0778
39 | RRIRCRPPRLPRPRPRPKEDPRP | 0.166
40 | RRIRCRPPRLPRPRPRPKELPRP | -0.000896
41 | RRIRCRPPRLPRPRPRPKEPPRP | 0.302
42 | RRIRCRPPRLPRPRPRPKGHPRP | -0.17
43 | RRIRCRPPRLPRPRPRPKGNPRP | -0.31
44 | RRIRCRPPRLPRPRPRPKGTPRP | 0.0259
45 | RRIRCRPPRLPRPRPRPKGVPRP | 0.595
46 | RRIRCRPPRLPRPRPRPKHPPRP | -0.0559
47 | RRIRCRPPRLPRPRPRPKHQPRP | -0.0465
48 | RRIRCRPPRLPRPRPRPKIVPRP | -0.29
49 | RRIRCRPPRLPRPRPRPKKIPRP | 0.00547
50 | RRIRCRPPRLPRPRPRPKKRPRP | 0.156

Row | Sequence | shrunken log2 fold change
51 | RRIRCRPPRLPRPRPRPKMAPRP | 0.0796
52 | RRIRCRPPRLPRPRPRPKMEPRP | -0.204
53 | RRIRCRPPRLPRPRPRPKNPPRP | 1.17
54 | RRIRCRPPRLPRPRPRPKNQPRP | -0.112
55 | RRIRCRPPRLPRPRPRPKNRPRP | -0.118
56 | RRIRCRPPRLPRPRPRPKQNPRP | 0.136
57 | RRIRCRPPRLPRPRPRPKRIPRP | -0.143
58 | RRIRCRPPRLPRPRPRPKRLPRP | 0.0169
59 | RRIRCRPPRLPRPRPRPKSIPRP | -0.349
60 | RRIRCRPPRLPRPRPRPKVCPRP | 0.0885
61 | RRIRCRPPRLPRPRPRPKVGPRP | -0.0582
62 | RRIRCRPPRLPRPRPRPKVQPRP | 0.0235
63 | RRIRCRPPRLPRPRPRPKVVPRP | -0.0915
64 | RRIRCRPPRLPRPRPRPKVWPRP | 0.261
65 | RRIRCRPPRLPRPRPRPKVYPRP | -0.167
66 | RRIRCRPPRLPRPRPRPKWMPRP | 0.361
67 | RRIRCRPPRLPRPRPRPKYIPRP | -0.828
68 | RRIRCRPPRLPRPRPRPKYKPRP | -0.834
69 | RRIRCRPPRLPRPRPRPLAWPRP | -0.0538
70 | RRIRCRPPRLPRPRPRPLEEPRP | 0.408
71 | RRIRCRPPRLPRPRPRPLFSPRP | 2.05
72 | RRIRCRPPRLPRPRPRPLGPPRP | 0.106
73 | RRIRCRPPRLPRPRPRPLHGPRP | -0.089
74 | RRIRCRPPRLPRPRPRPLIIPRP | -1.07
75 | RRIRCRPPRLPRPRPRPLIQPRP | -0.457

Row | Sequence | shrunken log2 fold change
76 | RRIRCRPPRLPRPRPRPLKPPRP | -0.225
77 | RRIRCRPPRLPRPRPRPLKRPRP | -0.052
78 | RRIRCRPPRLPRPRPRPLKSPRP | -0.154
79 | RRIRCRPPRLPRPRPRPLKYPRP | -0.566
80 | RRIRCRPPRLPRPRPRPLLMPRP | -0.195
81 | RRIRCRPPRLPRPRPRPLLWPRP | 0.671
82 | RRIRCRPPRLPRPRPRPLMAPRP | 0.18
83 | RRIRCRPPRLPRPRPRPLMIPRP | -0.431
84 | RRIRCRPPRLPRPRPRPLPMPRP | 0.074
85 | RRIRCRPPRLPRPRPRPLRKPRP | 0.734
86 | RRIRCRPPRLPRPRPRPLTKPRP | 0.291
87 | RRIRCRPPRLPRPRPRPLVLPRP | -0.378
88 | RRIRCRPPRLPRPRPRPLWDPRP | -0.386
89 | RRIRCRPPRLPRPRPRPLYLPRP | -0.493
90 | RRIRCRPPRLPRPRPRPLYTPRP | -0.765
91 | RRIRCRPPRLPRPRPRPMADPRP | -0.0181
92 | RRIRCRPPRLPRPRPRPMAHPRP | -0.00655
93 | RRIRCRPPRLPRPRPRPMANPRP | 0.0226
94 | RRIRCRPPRLPRPRPRPMAPPRP | 0.219
95 | RRIRCRPPRLPRPRPRPMDDPRP | -0.194
96 | RRIRCRPPRLPRPRPRPMDEPRP | 0.348
97 | RRIRCRPPRLPRPRPRPMDIPRP | 0.00412
98 | RRIRCRPPRLPRPRPRPMEYPRP | -0.17
99 | RRIRCRPPRLPRPRPRPMGAPRP | 0.144
100 | RRIRCRPPRLPRPRPRPMGDPRP | -0.0113

Row | Sequence | shrunken log2 fold change
101 | RRIRCRPPRLPRPRPRPMGIPRP | 0.00755
102 | RRIRCRPPRLPRPRPRPMGWPRP | 0.324
103 | RRIRCRPPRLPRPRPRPMHHPRP | -0.796
104 | RRIRCRPPRLPRPRPRPMHPPRP | -0.00769
105 | RRIRCRPPRLPRPRPRPMHSPRP | -0.0254
106 | RRIRCRPPRLPRPRPRPMHTPRP | -0.106
107 | RRIRCRPPRLPRPRPRPMIEPRP | -0.117
108 | RRIRCRPPRLPRPRPRPMIGPRP | -0.0953
109 | RRIRCRPPRLPRPRPRPMKMPRP | -0.0497
110 | RRIRCRPPRLPRPRPRPMLTPRP | -0.0319
111 | RRIRCRPPRLPRPRPRPMNLPRP | -0.538
112 | RRIRCRPPRLPRPRPRPMNMPRP | -0.445
113 | RRIRCRPPRLPRPRPRPMNVPRP | -0.00117
114 | RRIRCRPPRLPRPRPRPMPMPRP | -0.174
115 | RRIRCRPPRLPRPRPRPMSQPRP | -0.0148
116 | RRIRCRPPRLPRPRPRPMVWPRP | 0.412
117 | RRIRCRPPRLPRPRPRPMWGPRP | -0.214
118 | RRIRCRPPRLPRPRPRPMWRPRP | 0.276
119 | RRIRCRPPRLPRPRPRPNAEPRP | 0.118
120 | RRIRCRPPRLPRPRPRPNAIPRP | 0.0905
121 | RRIRCRPPRLPRPRPRPNCFPRP | -0.0988
122 | RRIRCRPPRLPRPRPRPNCSPRP | 0.0117
123 | RRIRCRPPRLPRPRPRPNDQPRP | 0.0359
124 | RRIRCRPPRLPRPRPRPNFIPRP | -0.616
125 | RRIRCRPPRLPRPRPRPNFVPRP | -0.123

Row | Sequence | shrunken log2 fold change
126 | RRIRCRPPRLPRPRPRPNHKPRP | -0.862
127 | RRIRCRPPRLPRPRPRPNMFPRP | -0.529
128 | RRIRCRPPRLPRPRPRPNMHPRP | -0.615
129 | RRIRCRPPRLPRPRPRPNMLPRP | -0.398
130 | RRIRCRPPRLPRPRPRPNNCPRP | -0.636
131 | RRIRCRPPRLPRPRPRPNNTPRP | -0.737
132 | RRIRCRPPRLPRPRPRPNQLPRP | -0.345
133 | RRIRCRPPRLPRPRPRPNRRPRP | -0.0599
134 | RRIRCRPPRLPRPRPRPNSEPRP | -0.398
135 | RRIRCRPPRLPRPRPRPNSRPRP | -0.175
136 | RRIRCRPPRLPRPRPRPNTIPRP | -0.553
137 | RRIRCRPPRLPRPRPRPNWGPRP | -0.0514
138 | RRIRCRPPRLPRPRPRPNWIPRP | -0.419
139 | RRIRCRPPRLPRPRPRPNWTPRP | -0.0217
140 | RRIRCRPPRLPRPRPRPNYDPRP | -0.672
141 | RRIRCRPPRLPRPRPRPNYFPRP | -0.763
142 | RRIRCRPPRLPRPRPRPPCDPRP | 0.242
143 | RRIRCRPPRLPRPRPRPPCSPRP | -0.315
144 | RRIRCRPPRLPRPRPRPPDWPRP | 0.416
145 | RRIRCRPPRLPRPRPRPPEMPRP | 0.67
146 | RRIRCRPPRLPRPRPRPPFAPRP | 0.455
147 | RRIRCRPPRLPRPRPRPPFEPRP | 0.136
148 | RRIRCRPPRLPRPRPRPPFHPRP | -0.224
149 | RRIRCRPPRLPRPRPRPPHMPRP | 1.56
150 | RRIRCRPPRLPRPRPRPPIDPRP | -0.071
